Results published in publication PMC4631479, “The structure of the GemC1 coiled coil and its interaction with the Geminin family of coiled-coil proteins” (Acta Crystallographica Section D: Biological Crystallography, 2015).

Target: the molecule itself
Experiment: SEC-MALS; Superdex 75 HR 10/30 with miniDAWN light-scattering and refractive-index detectors; 100 ul of purified tGemC1 dimer at ~2.0 mg/ml injected

B1: tGemC1^L123,130E (GemC1 coiled-coil domain variant, residues 64-146, L123E and L130E) (domain or fragment, human, UniProt A6NCL1 64-146, looked up)
chain: DSNFPLPDLCSWEEAQLSSQLYRNKQLQDTLVQKEEELARLHEENNHLRQYLNSALVKCEEEKAKKELSSDEFSKAYGKFRKG
notes: Geminin coiled-coil domain-containing protein 1 (GemC1), human, UniProt A6NCL1, residues 64-146, with L123E and L130E; codon-optimized synthetic gene; The His tag is called cleavable; also called tGemC1 homodimer; tGemC1-tGemC1; source: expressed from pETNKI-His-3CLIC-kan, purified (IMAC, size-exclusion chromatography)
For B1, the “stoichiometry N” value was 2.
